Source: patent US7291458B2, “Leptin-mediated gene-induction” (Vlaams Interuniversitair Instituut Voor Biotechnologie VZW, priority 1998, dated 2007)

Key:
ob/ob mice = test: Gene expression in leptin treated ob/ob mice (Northern blot); format: in vivo; settings: 100 μg/mouse intraperitoneally, 5 hours after treatment
Description: Leptin deficient ob/ob mice were left untreated (−) or were treated with leptin (100 μg; +) intraperitoneally. Mice were killed five hours after treatment. Northern blot analysis of MT-II and Fnk in liver and PAP I expression in jejunum is shown. Hybridization with the mouse b-actin probe was used as a control and is shown below. Exposure times to BioMax MS films were 4 hours, 3 days, 4 hours and 8 hours for MT-II, Fnk, PAP I and b-actin respectively.
In order to assess the value of our in vitro model system for obesity, we investigated the regulation by leptin of a subset of the identified genes in vivo. Recombinant human leptin (R&D Systems) was administered intraperitoneally to leptin deficient ob/ob mice in a single dose of 100 μg leptin /mouse. Mice were killed by cervical dislocation 5 hours after treatment and total RNA was isolated from liver and jejunum. Northern blot analysis was performed using respectively MT-II, Fnk and PAP I as probe (FIG. 9).
Specific pathogen-free female C57BL/6J-Lep^ob mice, 9 weeks old at the beginning of the experiment further referred to as ob/ob were obtained from The Jackson Laboratory (Maine, USA). […] The endotoxin content of the antibody was 0.07 ng/mg protein, as assessed by a chromogenic Limulus amebocyte lysate assay (Coatest, Chromogenix, Stockholm, Sweden). […]

PC12-LR8 cells = test: Northern blot analysis of gene induction in non-differentiated PC12-LR8 cells; format: cell-based, rat; settings: cycloheximide from 30 minutes before induction for 8.5 hours; 24 hours post induction
Description: PC12-LR8 cells were treated with leptin (L), forskolin (F), or a combination of both (F/L) for the indicated length of time. Hybridization with the mouse b-actin probe was used as a control. NI stands for non-induced control cells. Sizes of transcripts are shown on the right. Exposure times to Biomax MS films were 5.5 days for LIP-I and LIP-II, and 1 day for the corresponding b-actin blot, all at −80° C.
FIG. 6A. Induction patterns of Reg I, HIP-I and peripherin after a 12 hours stimulation with forskolin (F), leptin (L), forskolin plus leptin (F/L), hyper-IL-6 (H) or forskolin plus hyper-IL-6 (F/H). Untreated cells were analyzed as a control (NI). Exposure times to BioMax MS films for Reg I, HIP-I and b-actin were 4 days, 5 days and 3 hours, respectively; and in a separate experiment for peripherin and b-actin, 16 hours and 2 days.
FIG. 6B Induction patterns of PAP I, PAP III, MT-II, Fnk, MRF-1, SOCS-3 and STAT-3 after stimulation with leptin (L) or hyper-IL-6 (H), compared to non-treated control cells (NI). In all cases stimulation was for 12 hours, with the exception of PAP III where stimulation was for 24 hours. b-actin hybridization patterns are shown as control. Exposure times to BioMax MS films at −80° C. were 16 hours for PAP I and 1 hour for b-actin; 4 days for PAP III and 1 hour for b-actin; 3 days for MT-II and Fnk, and2 days for b-actin; 3 days for MRF-1, 2.5 days for SOCS-3 and2 days for b-actin; and 16 hours for STAT-3 and 3 hours for b-actin.
FIG. 8A. Northern blot analysis of the immediate early response genes. PC12-LR8 cells were left untreated (NI: non induced), or were treated with forskolin (F), leptin (L) or a combination of both (F/L) for the indicated time points. Exposure times to BioMax MS films for the different transcripts were Fnk: 6 days, MT-II: 5 days, MRF-1: 6 days, SOCS-3: 14 hours, STAT-3: 14 hours, b-actin: 5 hours.
FIG. 8B. Immediate early response gene-set: early kinetics. PC12-LR8 cells were treated with leptin alone (L) or with a combination of leptin and forskolin (F/L) for the indicated length of time. Exposure time to BioMax MS films were: Fnk: 3 days, MT-II: 3 days, MRF-1: 3 days, SOCS-3: 2.5 days, STAT-3: 2.5 days, b-actin: 1 hour.
FIG. 8C. Northern blot analysis of the late target genes. PC12-LR8 cells were left untreated (NI), or were treated with forskolin (F), leptin (L) or a combination of both (F/L) for the indicated length of time. Exposure times to BioMax MS films were: Ann VIII: 6 days, PAP I: 14 hours, Squalene Epoxidase: 5 days, UGT: 5 days, b-actin: 14 hours.
PC12 cells were cultured in RPMI 1640 medium with glutamax-I (GibcoBRL) containing 10% heat-inactivated foetal calf serum (iFCS) and gentamycin (50 μg/ml). The cells were treated with medium alone or supplemented with 100 ng/ml of mouse leptin (R&D Systems), with forskolin (Sigma) at a concentration of 10 μM or with a combination both, unless otherwise indicated.
Total RNA was prepared from PC12 cells using RNeasy™ method (Qiagen). RNA (10 μg) was separated on a 1.5% agarose,6% formaldehyde gel, transferred to a nylon membrane (Zeta-Probe GT Genomic, Bio-Rad), and cross-linked using UV radiation. The filters were hybridized for one hour at 68° C. in ExpressHyb™ solution (Clontech) with [^32P]dCTP-labeled DNA-probes and washed 3 times with 2×SSC, 0.05% SDS at room temperature and twice in 0.1×SSC, 0.1% SDS at 50° C. Autoradiographs were obtained by exposing the blots to BioMax MS film (Kodak) with intensifying screens at −70° C. All Northern blots were normalized by hybridization using a b-actin probe.

[1] = system: human POMC (proopiomelanocortin) promoter; test: pGL3-POMCluc reporter in PC12-LR8 cells; format: cell-based, rat
Description: (§1) FIGS. 1C and 1D. Analysis of b-NGF and forskolin co-stimulation on leptin-induced POMC luciferase (C) or rPAP luciferase activity (D). PC12-LR8 cells were transiently transfected with pGL3-hPOMCluc or pGL3-rPAPluc reporter and treated after two days with forskolin (F: 10 μM), leptin (L: 100 ng/ml), and rat b-NGF (N: 1 ng/ml) as indicated or were left untreated (NI). 24 hours after treatment, cells were lysed and assayed for luciferase activity.
(§2) Leptin responsiveness in PC12 cells was further investigated using a clone stably expressing the long isoform of the mouse leptin receptor (PC12-LR8, see below). After transfection of PC12-LR8 with a reporter construct based on the human POMC (proopiomelanocortin) promoter (pGL3-POMCluc) (FIG. 1 portion C), or a reporter construct based on the rat Pancreatitis Associated Protein I promoter (See below) (FIG. 1 portion D), leptin induced luciferase activity was measured. […]
(§3) Luciferase activity was measured in transfected cells by chemiluminescence. […] 70 μl of luciferase substrate buffer (20 mM Tricine; 1.07 mM (MgCO3)4Mg(OH)25H2O; 2.67 mM MgSO4; 0.1 mM EDTA; 33.3 mM DTT; 270 μM Coenzyme A (lithium salt); 470 μM Luciferin (Duchefa); 530 μM ATP, final pH 7.8) was added to 100 μl of cell lysate and measured for 5 seconds by TopCount.NXT Chemiluminescence Counter (Packard).

[2] = system: rat Pancreatitis Associated Protein I promoter; test: pGL3-rPAPluc reporter in PC12-LR8 cells; format: cell-based; settings: rPAP I reporter
Description: as §1, §2, §3

Recombinant human leptin: Recombinant human leptin (R&D Systems) administered intraperitoneally to mice
MT-II and Fnk mRNA expression in liver (ob/ob mice): clear induction | expression of PAP I in jejunum (ob/ob mice): downregulated

C[C@@H]1C[C@@H]([C@H](O)CC2CC(=O)NC(=O)C2)C(=O)[C@@H](C)C1 [cycloheximide, reference compound]
rPAP I and Annexin VIII mRNA expression (PC12-LR8 cells): strongly reduced expression

B1: b-NGF: recombinant rat b-nerve growth factor (protein, UniProt P25427 122-241, looked up)
Beta-nerve growth factor: SSTHPVFHMGEFSVCDSVSVWVGDKTTATDIKGKEVTVLGEVNINNSVFKQYFFETKCRAPNPVESGCRGIDSKHWNSYCTTTHTFVKALTTDDKQAAWRFIRIDTACVCVLSRKAARRG
combined b-NGF and forskolin effects on leptin induced luciferase activity [1]: additive | co-stimulation of leptin induced luciferase activity ([1]; b-NGF 1 ng/ml): mimicked | co-stimulation of leptin induced luciferase activity ([2]; b-NGF 1 ng/ml): mimicked | combined b-NGF and forskolin effects on leptin induced luciferase activity [2]: additive
